Source: patent publication US20220144895A1, “DE NOVO DESIGN OF TUNABLE PH-DRIVEN CONFORMATIONAL SWITCHES” (University of Washington, priority 2019, published 2022)
Changes are numbered by the printed parent chain. In names and notes the source's numbering stands. Entries after “also recorded” stand apart in the source; their conditions may differ.

B1: pRO-2: designed pH-responsive homotrimer, SEQ ID NO: 1-2 (protein)
chain 1: MGSHHHHHHGSGSENLYFQGSEYEIRKALEELKAATAELKRATASLRAITEELKKNPSEDALVEHNRAIVEHNAIIVEHNRIIAAVLELIVRAIK
chain 2: SEYEIRKALEELKAATAELKRATASLRAITEELKKNPSEDALVEHNRAIVEHNAIIVEHNRIIAAVLELIVRAIK
B2: pRO-2 I56V: pRO-2 mutant, SEQ ID NO: 17-18 (protein)
chain 1: B1 chain 1 with I76V
chain 2: GSEYEIRKALEELKAATAELKRATASLRAITEELKKNPSEDALVEHNRAIVEHNAIVVEHNRIIAAVLELIVRAIK

Columns and labels:
[1] = Size-exclusion chromatography (SEC); type: physicochemical; conditions: Superdex 75, Na2PO4-Citrate buffer pH 4
Experimental: Cells were lysed by microfluidization in the presence of 1 mM PMSF. Lysates were clarified by centrifugation at 24,000 ref at 4° C. for at least 30 minutes. Proteins were purified by Immobilized metal affinity chromatography (IMAC): supernatant was applied to Ni-NTA (Qiagen) columns pre-equilibrated in lysis buffer. The column was washed twice with 15 column volumes (CV) of wash buffer (25 mM Tris pH 8.0 at room temperature, 300 mM NaCl, 40 mM Imidazole), followed by 3-5 CV of high-salt wash buffer (25 mM Tris pH 8.0 at room temperature, 1 M NaCl, 40 mM Imidazole) then an additional 15 CV of wash buffer. Protein was eluted with 250 mM Imidazole, and buffer-exchanged into 25 mM Tris pH 8.0 and 150 mM NaCl without imidazole for cleavage of the N-terminal hexahistidine tag by purified hexahistidine-tagged TEV protease (with the exception of design pRO-1, which was cleaved using restriction grade thrombin (EMD Millipore 69671-3) at room temperature for 4 hours or overnight, using a 1:3000 dilution of enzyme into sample solution). A second Ni-NTA step was used to remove hexahistidine tag, uncleaved sample and the hexahistidine-tagged TEV protease, and the cleaved proteins were then […], 150 mM NaCl, and 2% glycerol.

[2] = Native mass spectrometry of pH-induced changes in oligomeric state; type: physicochemical; conditions: for pH response of oligomeric state (pH-induced disassembly): pH ~7 to ~3
Method in brief: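 Protein in 200 mM ammonium acetate/50 mM triethylammonium acetate, acid-adjusted to each target pH, was held 30 min on ice and sprayed by nESI at 5 μM monomer or 1.67 μM trimer. Oligomer fractions came from integrated charge-state series, then fitted by nonlinear least squares.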

U2-OS cells = assay: Lysosomal pH with LysoSensor Yellow/Blue DND-160; type: cell-based; conditions: 5 μM protein, 1 hr, LysoSensor yellow/blue ratio
Experimental: The final concentration of 5 μM+36GFP fusion proteins was incubated with the LAMP1-HaloTag™ expressing U-2 OS cells on a pre-coated coverslip for 1 hr. Cells were fixed with 4% paraformaldehyde for 20 min at room temperature (RT) and quenched/rinsed with PBS supplemented with 30 mM glycine. Then, the coverslips were mounted on FluoroSave™ (Millipore). For pH measurement of the lysosome, LysoSensor™ Yellow/Blue DND-160 was incubated at 1 mg/mL overnight and washed twice prior to imaging (54). The final concentration of 5 μM protein was incubated with the LAMP1-HaloTag expressing U2-OS cells that were loaded with 1 mg/mL LysoSensor™ Yellow/Blue DND-160 for 1 hr. In separate chambers, LysoSensor™ Yellow/Blue DND-160 loaded cells were incubated with bafilomycin A1 (1 μM) and chloroquine (50 μM) for 1 hr as a control. For live cell confocal microscopy, Zeiss 880 was used to collect LysoSensor™ Yellow/Blue signal. LysoSensor™ Yellow/Blue was excited with a 405 nm laser, and its emission was collected into the two regions (Blue=410-499 nm Yellow=500-600 nm) using a Plan-Apochromat 63×/1.4 oil DIC objective. The ratio of the two channels was calculated using the home-built software in Matlab™.

Molecule | state by SEC at pH 4 [1] | pH response of oligomeric state (pH-induced disassembly) ([2]; native MS) | reversibility of disassembly ([2]; pH lowered with acetic acid, then raised by ammonia or buffer exchange) | cooperativity of the pH-induced transition ([2]; native MS at different pH values) | pH transition point of disassembly (pH set point, pH0) ([2]; native MS, evaluated from pH 7 down to pH 3) | change of lysosomal pH (U2-OS cells) | change of lysosomal pH (U2-OS cells; listed as pRO-256V)
B1 | soluble aggregate | predominantly monomeric at pH 4 | re-association of monomers into trimer |  |  |  | 
B2 |  | most pH-sensitive |  | Neither of the mutations substantially affect the cooperativity | approximately 5.8 pH | larger changes in lysosomal pH than two drugs; also recorded: increases the lysosomal pH more than the small molecule drugs | raises the lysosomal pH
